Measured values published in the domain aggregation screens of Martell et al. (2025).

Experiment: soluble fraction after stress (log2 fold change); higher = more stays soluble; pooled small domains, quantitative proteomics
Details: stress: pH 4
Procedure, shortened: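 Custom libraries of small protein domains were pooled and exposed to pH 4. High-throughput quantitative proteomics then measured the log2 fold change in the amount of each domain still soluble, with higher values meaning more stayed soluble. This soluble-fraction fold change stands for aggregation propensity.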

| Sequence | soluble fraction (log2) |
| --- | --- |
| HMDPKISWESDEKLSANIGHYENSIKPLMGNKYLIELSQLKDKIESHPWVARATIKRIFWNKIHIQLESHD | 0.108 |
| HMDPKWSHVRRLLDDENPIVRKALTEELIRSPEEGLAFLEQVIREPDHLLAKHAHNLLSELGWV | 0.0459 |
| HMDPLGHVIKKKRLQLGMTLRDLAAKAGVHHATIDRIETDQFKVVDPSTLVKIAEALHLDQLYLLSLN | -0.532 |
| HMDPLPDEVQEVIDMVDGFKAMDELSEADKADVKAAYDAYNALSAEHKAMVPEHIVTFLNRAYDKLFD | -1.63 |
| HMDPPVDLTPREQQVLSRIALGMSDKAIAAELGVSHQTVRNHVARIYAKIKVHSRSQAIVWAREKGIP | -0.109 |
| HMDPSKMKIDELEIATRTATALADGGIKSVAGLIRKSASALKELDGVGDKAIAEITEALEKLGLELKG | -0.157 |
| HMDPSWVPVFNNLRDAILSHQLLPGTRLAEDELSNIYGLGRTVIRSALGALTHEGLLTHIPNRGVHVAKP | -0.585 |
| HMDPTIAAIRKKLKNWTIVEVHMTREELEQAVIDGKVDVFLSSAGFYRRLVRFGARDLATAMSPAYPD | -0.151 |
| HMDPTYYFNLYPNPSKDEVSLFTNFTGKINIEILDLAGKSILSDNPISTISLVSLKEGLYLVKVKS | -0.337 |
| HMDPYLSGLLQKLAETDKKISFTRLRSEDLDGESREAIYEFIEKYSGRFGVRWLLNEFGLSPSVYYNYLHS | -0.644 |
| HMDQDLGFLINKYFELGKDYNTLVEIYEKIKEYIASIDKKMLEYTKNFTIEQLKKWLDDGTINNIILTLG | -0.382 |
| HMDQEDAYMQVRQVFDTLLVSELSKRIFAWRFFEGKSFAEWPGAESQKFLYDTFNRILLIISAKIRRKNA | -0.522 |
| HMDQHERQQLLIHIAGGEREALAELYQRTRSAVYGLALSYLKNAHDAQDLTRDVYVQVWDRA | 0.0408 |
| HMDQQTKFKTALAALAASAETKDRKLTKADVKEFLEDMDLGEEQMKLVYAYLASKHIHVEGAE | -0.0463 |
| HMDQSIDADIINLNFSKNIIKIEENVYYKNNNAKVNADKIEINIETKKLKISMNEQEDEVEIFAK | -0.399 |
| HMDQTIFFGQQKAINNLSTDAGLSATELDEYLKKRYKRPLYQLTQAEGAEIIKGFQDGALSRSSILDYTK | 0.22 |
| HMDRKFFFNEQYEDYINSDLKVKFMNDSGSKKSFQGELTKVTPSDLFLESEKESVKVPFSSIIQANLI | -0.591 |
| HMDRLTISTLGNGLFRVNGAEAEATVYNLSGNVVKVVPADEVIDLSSLAKGVYIIHVDGEAFKVI | -0.0808 |
| HMDRMFQPETWSKIYQWVMNDPQVPDKEDVLALIRRHFGNFEKLIKLLHYLDGGKPYAYLSEH | 0.411 |

| Sequence | soluble fraction (log2) |
| --- | --- |
| HMDRSLYVGDAVGFDSARGLMEIEVKNKFSVVAVSLKKKPSGNFITPLLRMEKKKGEAVTVAPGSGHR | -0.141 |
| HMDRSQRDQEQAQLIRLVQQAFDDSGQRYGAEKIRITLAEGGIRVSTKRIAAIMQELDLRSI | 0.251 |
| HMDRSRAEIDLGHVETAIRTLAEGGMVQEYAIGGRSLKRYKMGELLQLKAELENEINMERRKEKMRQ | 0.184 |
| HMDRVDGWLHDGKLYLRVVDYKTGKKSFDLAELRYGLGLQMLLYLFTLKEEGQMLFGGHEIVPAGVL | -0.282 |
| HMDRVSEITLTRLRDYAADGQVRTATLTHRTNVVTGTLRDGRRFSAGVPPMYGDELTTFLLDNGVRVDSDN | -0.276 |
| HMDSDMGQQLKTLLTVGTFMSSKELKAIAQQLGLKKPTDLKEWVELESGTQRIEGKPTKGYWIKMNDINN | -0.288 |
| HMDSGINVWASAEGLTITADKDTTVYVYDIYGRTIHTSEVKAGTSDIAINTKGIVIVKANGYTKKII | -0.76 |
| HMDSILSIVGGEESYKALLAWAENNISQQELQQLETILKSGNVPAIKRVLVTLMNRFNQAQS | -0.547 |
| HMDSINGEASISRELHGTRFDQAAAILFPEFSRSRLQAWIGAGALTLDGQTARAKDKVTQGQHLVLAAAVE | -0.536 |
| HMDSINIDEETAKLGPNAPQIIDGIKKWGQGLVAKGVWSDEDFDEFKVFAATSSGINALNKIRKYY | -0.138 |
| HMDSKYLRIFSTLIDEMEKMSPGEQLQSERELSQRFQVSPMTVRRALHKLSTEGYTSAIPGKGTFVRK | -0.0388 |
| HMDSLELADEVGRVSEALQELRPHQREVLELSLVHGRSHQQISEKTGLALGTVKSHARRGLMRVREMLGV | -0.162 |
| HMDSLIEYENERSLRRLINENLSDYERTVWWLYYAGADAAHIAEQTGRSKRSAENAITRVRRKLRALITQS | -0.188 |
| HMDSNISVSEALEMVDKGSVKEIIVEGEKLYITNQDGKQYTSSKEVGVSLIELMKDSGIDPIKSDVNIIVK | -0.703 |
| HMDSRVRHAVLTTLLGKRIVDDLVEKGELPGTPLVLATAPGLDRDLEQLIAQRVVTALLTTV | 0.192 |
| HMDSSALEPIVDQIIADNPKQVEQFQAGKTKVLGFFVGQVMKQTDGTANPKQVNELVAARLKSA | 0.0973 |
| HMDSTDSIIHYVRAHRSLEVKNLSFAEARFKKVVELEPNFARGWLGLGEVSILKNNFENASIYLDKALE | -0.505 |
| HMDSTLTNEIYNELYRAITHQELKPGQNLTLTMLKKQFNVSHTPIREALTRLSADGLVTYHPNKGMKVT | 0.222 |
| HMDSTTHALALVRTLPRDQAEAVLLRVVADLDYADVAEIMGRSPGAVRVLVHRGLRRLEQELATRRT | -0.426 |
